Data from PMC4814300 (Cell reports, 2016).

T1: Ven-SH3 (Gads, aa.256-322) (mouse, UniProt O89100 256-322)
T1 sequence (looked up): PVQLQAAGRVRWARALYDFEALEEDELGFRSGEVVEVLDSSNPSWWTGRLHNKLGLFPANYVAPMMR


Target: T1, Ven-SH3 (Gads, aa.256-322)
Test: FRET or BRET

Compared with PAPSIDRSTKPPL (peptide, UniProt Q13094 231-243, looked up) [Cer-SLP-76, aa.231-243], PAPSIKRSTKPPL (peptide, UniProt Q13094 231-243, looked up) [Cer-SLP-76 (D236K), aa.231-243] is 8.8-fold higher in Kd: 0.8 µM for the first, 7 µM for the second. The first binds more tightly here.

First: PAPSIDRSTRPPL (peptide, UniProt Q13094 231-243, looked up) [Cer-SLP-76 (K240R), aa.231-243]
Second: NVPQIDRTKKPAV (peptide, UniProt P40818 403-415, looked up) [Cer-USP8, aa.403-415]
The Kd of the first is 6-fold higher: 24 µM for the first, 4 µM for the second.

EPPPVDRNLKPDR (peptide, UniProt Q13480 515-527, looked up) [Cer-Gab1, aa.515-527] gave a Kd of 1 µM.
